According to PMC10397247:

Tests used:
4H932-bH = molecular target: T1, 4H932-bH; test: two-hybrid library CCNG1;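 also: natural log of median RNA to DNA barcode read ratio; higher means stronger binding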
T1 chain: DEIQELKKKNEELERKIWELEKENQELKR

4H796-bH = molecular target: T2, 4H796-bH; test: two-hybrid library CCNG1;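 also: natural log of median RNA to DNA barcode read ratio; higher means stronger binding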
T2 chain: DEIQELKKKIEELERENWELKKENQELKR

4H730-bH = molecular target: T3, 4H730-bH; test: two-hybrid library CCNG1;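 also: natural log of median RNA to DNA barcode read ratio; higher means stronger binding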
T3 chain: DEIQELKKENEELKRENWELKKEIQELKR

4H56-bH = molecular target: T4, 4H56-bH; test: two-hybrid library CCNG1;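 also: natural log of median RNA to DNA barcode read ratio; higher means stronger binding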
T4 chain: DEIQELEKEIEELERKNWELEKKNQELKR

4H349-bH = molecular target: T5, 4H349-bH; test: two-hybrid library CCNG1;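 also: natural log of median RNA to DNA barcode read ratio; higher means stronger binding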
T5 chain: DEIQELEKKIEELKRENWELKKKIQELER

4H949-bH = molecular target: T6, 4H949-bH; test: two-hybrid library CCNG1;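 also: natural log of median RNA to DNA barcode read ratio; higher means stronger binding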
T6 chain: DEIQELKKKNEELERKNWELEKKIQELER

4H_APH = molecular target: T7, 4H_APH; test: two-hybrid library CCmax
T7 chain: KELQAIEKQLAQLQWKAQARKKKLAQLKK

4H_GCN4 = test: two-hybrid library CCmax
4H535-AA = molecular target: T8, 4H535-AA; test: two-hybrid library CCmax
T8 chain: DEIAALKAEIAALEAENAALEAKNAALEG

GCN2_T = test: two-hybrid library CCmax
4H895-AA = molecular target: T9, 4H895-AA; test: two-hybrid library CCmax; conditions: mean of both orientations
T9 chain: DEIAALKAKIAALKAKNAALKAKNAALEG

4H_BCR = molecular target: T10, 4H_BCR; test: two-hybrid library CCmax; conditions: mean of both orientations
T10 chain: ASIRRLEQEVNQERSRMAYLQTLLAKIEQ

4H58-AA = molecular target: T11, 4H58-AA; test: two-hybrid library CCmax; conditions: mean of both orientations
T11 chain: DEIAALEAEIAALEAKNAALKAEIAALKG

4H754-bA = molecular target: T12, 4H754-bA; test: two-hybrid library CCNG1
T12 chain: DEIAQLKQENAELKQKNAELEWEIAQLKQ

4H953-bA = molecular target: T13, 4H953-bA; test: two-hybrid library CCNG1
T13 chain: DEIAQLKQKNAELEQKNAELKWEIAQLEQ

O8-bA = molecular target: T14, O8-bA; test: two-hybrid library CCNG1
T14 chain: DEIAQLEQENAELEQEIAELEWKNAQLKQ

4H683-bA = molecular target: T15, 4H683-bA; test: two-hybrid library CCNG1
T15 chain: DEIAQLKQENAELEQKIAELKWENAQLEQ

4H855-bA = molecular target: T16, 4H855-bA; test: two-hybrid library CCNG1
T16 chain: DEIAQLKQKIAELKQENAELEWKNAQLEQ

4H780-bA = molecular target: T17, 4H780-bA; test: two-hybrid library CCNG1
T17 chain: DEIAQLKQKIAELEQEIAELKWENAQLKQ

4H968-bA = molecular target: T18, 4H968-bA; test: two-hybrid library CCNG1
T18 chain: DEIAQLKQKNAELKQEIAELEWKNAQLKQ

4H797-bA = molecular target: T19, 4H797-bA; test: two-hybrid library CCNG1
T19 chain: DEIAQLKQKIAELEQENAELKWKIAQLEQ

4H918-bA = molecular target: T20, 4H918-bA; test: two-hybrid library CCNG1
T20 chain: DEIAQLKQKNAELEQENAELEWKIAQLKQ

4H968-bN = molecular target: T21, 4H968-bN; test: two-hybrid library CCNG1
T21 chain: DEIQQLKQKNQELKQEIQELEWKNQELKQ

4H918-bN = molecular target: T22, 4H918-bN; test: two-hybrid library CCNG1
T22 chain: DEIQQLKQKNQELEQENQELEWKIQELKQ

4H797-bN = molecular target: T23, 4H797-bN; test: two-hybrid library CCNG1
T23 chain: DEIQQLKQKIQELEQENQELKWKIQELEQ

4H575-bN = molecular target: T24, 4H575-bN; test: two-hybrid library CCNG1
T24 chain: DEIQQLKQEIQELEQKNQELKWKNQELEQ

4H754-bN = molecular target: T25, 4H754-bN; test: two-hybrid library CCNG1
T25 chain: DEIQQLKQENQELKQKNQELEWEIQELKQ

4H457-bN = molecular target: T26, 4H457-bN; test: two-hybrid library CCNG1
T26 chain: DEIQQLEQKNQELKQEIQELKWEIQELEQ

4H953-bN = molecular target: T27, 4H953-bN; test: two-hybrid library CCNG1
T27 chain: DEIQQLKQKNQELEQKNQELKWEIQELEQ

4H780-bN = molecular target: T28, 4H780-bN; test: two-hybrid library CCNG1
T28 chain: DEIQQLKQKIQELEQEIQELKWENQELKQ

4H683-bN = molecular target: T29, 4H683-bN; test: two-hybrid library CCNG1
T29 chain: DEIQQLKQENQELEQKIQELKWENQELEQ

4H855-bN = molecular target: T30, 4H855-bN; test: two-hybrid library CCNG1
T30 chain: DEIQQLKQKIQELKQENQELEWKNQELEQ

4H963-AA = molecular target: T31, 4H963-AA; test: two-hybrid library CCmax
T31 chain: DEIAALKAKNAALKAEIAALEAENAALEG

4H3381-bH = molecular target: T32, 4H3381-bH; test: two-hybrid library CCNG1
T32 chain: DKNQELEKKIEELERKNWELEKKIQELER

4H_GCN4, sequence (chain, as listed by the source): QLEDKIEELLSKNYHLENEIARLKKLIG

B1: 4H349-bH (peptide)
chain: DEIQELEKKIEELKRENWELKKKIQELER
Question: What does the source list for B1?
Answer: interaction score (4H932-bH): 0.654; interaction score (4H796-bH): 0.227; interaction score (4H730-bH): -0.225; interaction score (4H56-bH): 0.452; interaction score (4H349-bH): 0.275; interaction score (4H949-bH): -0.023

B2: 4H535-AA (peptide)
chain: DEIAALKAEIAALEAENAALEAKNAALEG
Question: What does the source list for B2?
Answer: interaction score (4H_APH): -1.48; interaction score (4H_GCN4): -1.41; interaction score (4H535-AA): -0.291; interaction score (GCN2_T): -2.47; interaction score (4H895-AA): 2.1; interaction score (4H_BCR): -1.23; interaction score (4H58-AA): -0.661

B3: 4H683-bA (peptide)
chain: DEIAQLKQENAELEQKIAELKWENAQLEQ
Question: What does the source list for B3?
Answer: interaction score (4H754-bA): -0.665; interaction score (4H953-bA): -1.67; interaction score (O8-bA): -2.64; interaction score (4H683-bA): -0.189; interaction score (4H855-bA): -0.474; interaction score (4H780-bA): -1.43; interaction score (4H968-bA): 2.25; interaction score (4H797-bA): -1.06; interaction score (4H918-bA): -0.784

B4: 4H457-bN (peptide)
chain: DEIQQLEQKNQELKQEIQELKWEIQELEQ
Question: B4 was tested. Which interaction score (4H968-bN) did it give?
Answer: -1.86

Question: What about the interaction score (4H918-bN) of the same binder?
Answer: -1.24

Question: And the interaction score (4H797-bN)?
Answer: -1.31

Question: What about the interaction score (4H575-bN) of the same binder?
Answer: -0.989

Question: What about the interaction score (4H754-bN) of the same binder?
Answer: -0.487

Question: What about the interaction score (4H457-bN) of the same binder?
Answer: -1.6

Question: And the interaction score (4H953-bN)?
Answer: -0.785

Question: What about the interaction score (4H780-bN) of the same binder?
Answer: -1.08

Question: What about the interaction score (4H683-bN) of the same binder?
Answer: -0.914

Question: What about the interaction score (4H855-bN) of the same binder?
Answer: -2.15

B5: 4H963-AA (peptide)
chain: DEIAALKAKNAALKAEIAALEAENAALEG
Question: Which interaction score (4H963-AA) does the source give for B5 here?
Answer: -2.11

B6: 4H3381-bH (peptide)
chain: DKNQELEKKIEELERKNWELEKKIQELER
Question: How did the interaction score (4H932-bH) turn out when B6 was run?
Answer: -0.263

Question: And the interaction score (4H796-bH)?
Answer: -1.28

Question: And the interaction score (4H730-bH)?
Answer: -1.42

Question: What about the interaction score (4H56-bH) of the same binder?
Answer: -1.78

Question: And the interaction score (4H349-bH)?
Answer: -1.42

Question: And the interaction score (4H3381-bH)?
Answer: 1.27

Question: And the interaction score (4H949-bH)?
Answer: 0.43
